{
  "source": "paper PMC2715281",
  "about": "(Nature structural & molecular biology, 2009)",
  "binders": {"B1": {"name": "56DNA crystal 14-mer (symmetrized) (dsDNA)", "DNA 1": "AGTTTTCAGAAACC", "DNA 2": "AGGTTTCTGAAAAC"}, "B2": {"name": "His6-tagged RAG1 nonamer-binding domain (murine RAG1 residues 389-464) (domain or fragment, UniProt P15919 389-464, looked up)", "chain": "GGRPRQHLLSLTRRAQKHRLRELKIQVKEFADKEEGGDVKAVCLTLFLLALRARNEHRQADELEAIMQGRGSGLQP"}, "B3": {"name": "Native crystal 14-mer (nonamer plus 4 bp of 12RSS spacer) (dsDNA)", "DNA 1": "ACTTAACAAAAACC", "DNA 2": "TGGTTTTTGTTAAG"}, "B4": {"name": "Consensus 12RSS (dsDNA)", "DNA 1": "GATCTGGCCTGTCTTACACAGTGATACAGACCTTAACAAAAACCTGCACTCGAGCGGAG", "DNA 2": "CTCCGCTCGAGTGCAGGTTTTTGTTAAGGTCTGTATCACTGTGTAAGACAGGCCAGATC"}},
  "key": {"[1]": {"biological_target": "T1, RAG1 NBD (mouse (murine), UniProt P15919 389-464)", "T1 sequence": "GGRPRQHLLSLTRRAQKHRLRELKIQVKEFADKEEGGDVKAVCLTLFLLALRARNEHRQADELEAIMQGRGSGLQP", "test": "crystal structure"}, "[2]": {"biological_target": "the molecule itself", "test": "SEC + SEC-MALS"}, "[3]": {"biological_target": "T1, RAG1 NBD", "test": "crystal structure", "remark": "listed apart in the source"}, "[4]": {"biological_target": "T2, MBP-RAG1 core WT;GST-RAG2 core (mouse (murine);mouse (murine), UniProt P15919;P21784 384-1008;1-383, |)", "T2 sequence 1": "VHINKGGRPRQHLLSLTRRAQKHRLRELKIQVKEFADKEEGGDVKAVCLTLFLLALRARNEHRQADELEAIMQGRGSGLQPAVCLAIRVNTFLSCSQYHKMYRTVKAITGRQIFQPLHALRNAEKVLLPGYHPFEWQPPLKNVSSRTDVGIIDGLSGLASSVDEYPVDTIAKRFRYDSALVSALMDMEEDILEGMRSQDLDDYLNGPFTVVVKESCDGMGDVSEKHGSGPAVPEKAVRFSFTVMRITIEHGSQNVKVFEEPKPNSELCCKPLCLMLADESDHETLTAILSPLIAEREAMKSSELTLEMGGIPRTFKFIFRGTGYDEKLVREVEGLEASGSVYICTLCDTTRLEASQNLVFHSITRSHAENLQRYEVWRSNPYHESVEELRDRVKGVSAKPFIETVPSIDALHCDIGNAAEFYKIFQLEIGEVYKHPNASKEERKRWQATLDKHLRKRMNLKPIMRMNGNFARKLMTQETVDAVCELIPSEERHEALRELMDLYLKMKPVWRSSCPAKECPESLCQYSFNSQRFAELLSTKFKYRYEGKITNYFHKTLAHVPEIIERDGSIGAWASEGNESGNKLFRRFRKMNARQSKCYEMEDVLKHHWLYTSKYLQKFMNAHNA", "T2 sequence 2": "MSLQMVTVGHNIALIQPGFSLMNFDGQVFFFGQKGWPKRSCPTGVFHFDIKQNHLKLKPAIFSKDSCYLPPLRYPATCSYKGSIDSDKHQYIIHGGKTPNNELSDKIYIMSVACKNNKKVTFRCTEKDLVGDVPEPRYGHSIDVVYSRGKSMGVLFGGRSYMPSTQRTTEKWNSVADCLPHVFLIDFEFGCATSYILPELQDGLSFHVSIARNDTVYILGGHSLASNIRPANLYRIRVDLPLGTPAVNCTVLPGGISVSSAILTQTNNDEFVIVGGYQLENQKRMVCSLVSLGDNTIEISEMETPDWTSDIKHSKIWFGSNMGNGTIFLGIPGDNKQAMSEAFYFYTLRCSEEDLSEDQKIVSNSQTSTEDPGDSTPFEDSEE", "test": "EMSA"}, "[5]": {"biological_target": "MBP-RAG1 core WT;GST-RAG2 core;His-HMGB1 (mouse (murine);mouse (murine);human, UniProt P15919;P21784;P09429 384-1008;1-383;1-215, ||)", "sequence (P09429 whole entry, one chain of several)": "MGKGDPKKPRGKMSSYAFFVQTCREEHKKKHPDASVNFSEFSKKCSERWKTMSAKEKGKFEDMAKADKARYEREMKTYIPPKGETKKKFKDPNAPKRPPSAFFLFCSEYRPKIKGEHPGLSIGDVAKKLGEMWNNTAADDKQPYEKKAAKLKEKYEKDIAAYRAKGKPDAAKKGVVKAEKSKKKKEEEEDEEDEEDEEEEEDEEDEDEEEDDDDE", "test": "EMSA"}},
  "note": "Where two headings read alike, the source gives them in different places.",
  "data": [
    {"binder": "B1", "values": [
      {"measurement": "binding result", "setting": "[1]", "result": "binds"}
    ]},
    {"binder": "B2", "values": [
      {"measurement": "stoichiometry N", "setting": "[2]", "result": 2}
    ]},
    {"binder": "B3", "values": [
      {"measurement": "binding result", "setting": "[3]", "result": "binds"}
    ]},
    {"binder": "B4", "values": [
      {"measurement": "binding signal", "setting": "[4]", "result": "1 relative to WT"},
      {"measurement": "binding result", "setting": "[5]", "result": "binds"}
    ]}
  ]
}
